Data taken from paper doi:10.1101/2022.08.28.505448 (bioRxiv, 2022).
One block for each binder: values may come before it.

Legend:
GB1-TAZ2 = biological target: T1, GB1-TAZ2 (human, UniProt Q09472 1723-1812, C1738A | C1746A | C1789A | C1790A); assay: peptide or protein array
T1 sequence (looked up): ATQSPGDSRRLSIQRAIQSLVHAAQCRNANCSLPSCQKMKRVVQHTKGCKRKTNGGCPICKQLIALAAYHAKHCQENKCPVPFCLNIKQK

MITF_(81-204) = biological target: T2, MITF_(81-204) (UniProt O75030-9 81-204); assay: ITC
T2 sequence (looked up): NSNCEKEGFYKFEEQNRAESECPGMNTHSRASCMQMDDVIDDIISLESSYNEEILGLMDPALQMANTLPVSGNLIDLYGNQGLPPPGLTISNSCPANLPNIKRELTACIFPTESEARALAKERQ

[1] = biological target: T3, GB1-MITF_(81-204) Δ123-127 (UniProt O75030-9 81-204, Δ123-127); assay: pull-down
T3 sequence (looked up): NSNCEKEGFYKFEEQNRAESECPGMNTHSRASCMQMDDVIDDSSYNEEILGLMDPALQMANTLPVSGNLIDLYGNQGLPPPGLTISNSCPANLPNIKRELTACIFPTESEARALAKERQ

Binder: DDVIDDIIALESSYNEEIL (peptide, UniProt O75030-9 117-135, looked up) [MITF_(117-135) peptide, Ser125 mutated to alanine]
binding result (GB1-TAZ2): binds

Binder: DDVIDDIISAESSYNEEIL (peptide, UniProt O75030-9 117-135, looked up) [MITF_(117-135) peptide, Leu126 mutated to alanine]
binding result (GB1-TAZ2): binds

Binder: DAVIDDIISLESSYNEEIL (peptide, UniProt O75030-9 117-135, looked up) [MITF_(117-135) peptide, Asp118 mutated to alanine]
binding result (GB1-TAZ2): binds

B1: TAZ2 (residues 1723-1812 of p300 with four stabilizing mutations) (domain or fragment, human, UniProt Q09472 1723-1812, looked up)
chain: T1 sequence (looked up)
Kd (MITF_(81-204)): 1.24 ± 0.23 µM | binding result [1]: binds

Binder: DDVADDIISLESSYNEEIL (peptide, UniProt O75030-9 117-135, looked up) [MITF_(117-135) peptide, Ile120 mutated to alanine]
binding result (GB1-TAZ2): binds

B2: TAZ1 (residues 346-440 of CBP) (domain or fragment)
chain: not shown
Kd (MITF_(81-204)): 6.7 ± 0.5 µM

Further lines, results first:

binding result (GB1-TAZ2): binds
Binder: DDVIDAIISLESSYNEEIL (peptide, UniProt O75030-9 117-135, looked up) [MITF_(117-135) peptide, Asp122 mutated to alanine]

binding result (GB1-TAZ2): binds
Binder: DDVIDDIISLASSYNEEIL (peptide, UniProt O75030-9 117-135, looked up) [MITF_(117-135) peptide, Glu127 mutated to alanine]

binding result (GB1-TAZ2): binds
Binder: DDVIDDIASLESSYNEEIL (peptide, UniProt O75030-9 117-135, looked up) [MITF_(117-135) peptide, Ile124 mutated to alanine]

binding result (GB1-TAZ2): binds
Binder: ADVIDDIISLESSYNEEIL (peptide, UniProt O75030-9 117-135, looked up) [MITF_(117-135) peptide, Asp117 mutated to alanine]

binding result (GB1-TAZ2): binds
Binder: DDAIDDIISLESSYNEEIL (peptide, UniProt O75030-9 117-135, looked up) [MITF_(117-135) peptide, Val119 mutated to alanine]

binding result (GB1-TAZ2): binds
Binder: DDVIADIISLESSYNEEIL (peptide, UniProt O75030-9 117-135, looked up) [MITF_(117-135) peptide, Asp121 mutated to alanine]

binding result (GB1-TAZ2): binds
Binder: DDVIDDAISLESSYNEEIL (peptide, UniProt O75030-9 117-135, looked up) [MITF_(117-135) peptide, Ile123 mutated to alanine]
